Laboratory results from patent US20210032343A1.

Columns and labels:
PD-1 (human) = PD-1 (human) (UniProt Q15116); experiment: competition ELISA; blocking PD-1/PD-L2
HER2 (human) = HER2 (human) (UniProt P04626); experiment: ELISA

Sequence of PD-1 (human) (Q15116 25-167): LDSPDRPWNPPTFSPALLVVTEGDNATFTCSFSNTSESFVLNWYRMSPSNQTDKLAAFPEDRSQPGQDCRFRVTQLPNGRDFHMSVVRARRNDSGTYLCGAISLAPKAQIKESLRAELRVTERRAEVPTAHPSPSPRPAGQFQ

IC50 (PD-1 (human)): > 20 nM | EC50 (HER2 (human)): 0.12 nM
Substance: HER2
